Source: US20210301003A1 (Eli Lilly, published 2021)

Tests used:
Aβ 1-40 peptide (human) = test: KinExA 3000 equilibrium analysis, 37 C, Fab with serially diluted human soluble Abeta (1-40)
[1] = biological target: β-amyloid peptide (1-42) conjugated to BSA (Aβ1-42-Cys-BSA conjugate) (bovine); test: competitive ELISA on Aβ1-42-BSA against biotinylated Mu266 (0.3 µg/ml), first set of three experiments
[2] = biological target: β-amyloid peptide (1-42) conjugated to BSA (Aβ1-42-Cys-BSA conjugate) (bovine); test: competitive ELISA on Aβ1-42-BSA against biotinylated Mu266 (0.3 µg/ml), second set of three experiments
[3] = biological target: T1, β-amyloid peptide (1-42) conjugated to BSA (Aβ1-42-Cys-BSA conjugate) (bovine, maleimide-activated; Cys43 coupled to maleimide-activated bovine serum albumin); test: competitive ELISA on Aβ1-42-BSA against biotinylated Mu266 (0.3 µg/ml), first set of three experiments
T1 construct: Coated on ELISA plates at 10 µg/mL; also called Aβ1-42-BSA conjugate; Aβ1-42-Cys43
Procedure: (§1) The Aβ142-BSA conjugate was prepared by dissolving 7.5 mg of Aβ₁₋₄₂-Cys₄₃ (C-terminal cysteine Aβ₁₋₄₂, AnaSpec) in 500 μL of dimethylsulfoxide, and then immediately adding 1,500 μL of distilled water. Two (2) milligrams of maleimide-activated bovine serum albumin (Pierce) was dissolved in 200 μL of distilled water. The two solutions were combined, thoroughly mixed, and allowed to stand at room temperature for two (2) hours. A gel chromatography column was used to separate unreacted peptide from Aβ₁₋₄₂-Cys-BSA conjugate.
(§2) After washing the wells with phosphate buffered saline (PBS) containing 0.1% Tween 20 (Washing Buffer) using an ELISA plate washer, the wells were blocked by adding 300 μL of SuperBlock reagent (Pierce) per well. After 30 minutes of blocking, the wells were washed Washing Buffer and excess liquid was removed.
(§3) As a background control, 100 μl of ELISA Buffer was added. The ELISA plate was incubated at room temperature for 90 min. After washing the wells with Washing Buffer, 100 μl of 1 μg/ml HRP-conjugated streptavidin (Cat #21124, Pierce) was added to each well. […] Absorbance was read at 415 nm. The absorbances were plotted against the log of the competitor concentration, curves were fit to the data points (using Prism) and the IC50 was determined for each antibody using methods well-known in the art.

[4] = biological target: T1, β-amyloid peptide (1-42) conjugated to …; test: competitive ELISA on Aβ1-42-BSA against biotinylated Mu266 (0.3 µg/ml), second set of three experiments
Procedure: as §1, §2, §3

**Q.** For “m266-Fab (Fab fragment of murine monoclonal antibody 266)”, which Kd (Aβ 1-40 peptide (human)) is on record?
**A.** Its Kd is 240 pM.

**Q.** For Mouse monoclonal antibody 266 (Mu266), which IC50 [1] is on record?
**A.** The IC50 was 4.7 µg/mL.

**Q.** And the IC50 [2]?
**A.** The IC50 was 3.87 µg/mL.

B1: humanized 266 antibody (Hu266) (antibody, human IgG1, kappa, V domains shown)
VH: EVQLVESGGGLVQPGGSLRLSCAASGFTFSRYSMSWVRQAPGKGLELVAQINSVGNSTYYPDTVKGRFTISRDNAKNTLYLQMNSLRAEDTAVYYCASGDYWGQGTLVTVSS
VL: DVVMTQSPLSLPVTLGQPASISCRSSQSLIYSDGNAYLHWFLQKPGQSPRLLIYKVSNRFSGVPDRFSGSGSGTDFTLKISRVEAEDVGVYYCSQSTHVPWTFGQGTKVEIKR
notes: Mature antibody expressed from pVk-Hu266 and pVg1-Hu266 in Sp2/0 cells; also called exemplified anti-Aβ antibody
**Q.** What does the source list for B1?
**A.** IC50 [3]: 7.5 µg/mL; IC50 [4]: 4 µg/mL
